According to the supplement of paper PMC10567573:

B1: FANCE (parent)
chain: AQVLMLGQILELPWKEETFLVLQS
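Note: lentivirally expressed fusions sorted by FACS into six bins by GFP to DsRed ratio, PSI derived from sequencing read proportions per bin multiplied by bin number.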

Variants of: B1
Test: protein stability index of a GFP-peptide fusion (GPS, HEK-293T) (PSI 1-6); higher = more stable
Details: c terminus: a fixed tail appended
For AQVLMLGQILELPWKEETFIVLQS [L20I], the protein stability index was 2.31. For AQVLMLGQILELPWKEETFAVLQS [L20A], the protein stability index was 3.76. AQVLMLGQILELPWKEETFPVLQS [L20P] showed a protein stability index of 1.94. In the case of AQVLMLGQILELPWKEETFMVLQS [L20M], the protein stability index is reported as 1.73. AQVLMLGQILELPWKEETRLVLQS [F19R] showed a protein stability index of 2.1. Work on AQVLMLGQILELPWKEETGLVLQS [F19G] yielded a protein stability index of 2.11. Work on AQVLMLGQILELPWKEETYLVLQS [F19Y] yielded a protein stability index of 2.24. For AQVLMLGQILELPWKEETVLVLQS [F19V], the protein stability index was 2.48. For IQVLMLGQILELPWKEETFLVLQS [A1I], the protein stability index was 3.1. LQVLMLGQILELPWKEETFLVLQS [A1L] gave a protein stability index of 3.15. Variant APVLMLGQILELPWKEETFLVLQS [Q2P] has a protein stability index of 1.55. For AGVLMLGQILELPWKEETFLVLQS [Q2G], the protein stability index was 2.21. For ADVLMLGQILELPWKEETFLVLQS [Q2D], the protein stability index was 2. Work on AHVLMLGQILELPWKEETFLVLQS [Q2H] yielded a protein stability index of 2.69. AQVLMLGQALELPWKEETFLVLQS [I9A] gave a protein stability index of 3.41. AQVLMLGQPLELPWKEETFLVLQS [I9P] gave a protein stability index of 2.75. In the case of AQVLMLGQKLELPWKEETFLVLQS [I9K], the protein stability index is reported as 1.6. In the case of AQVLMLGQILELPWKEETFLVLVS [Q23V], the protein stability index is reported as 2. Variant AQVLMLGQILELPWKEETFLVLIS [Q23I] has a protein stability index of 2.18. Work on AQVLMLGQILELPWKEETFLVLPS [Q23P] yielded a protein stability index of 3.09. For AQVDMLGQILELPWKEETFLVLQS [L4D], the protein stability index was 3.76. AQVCMLGQILELPWKEETFLVLQS [L4C] showed a protein stability index of 3.01. In the case of AQVSMLGQILELPWKEETFLVLQS [L4S], the protein stability index is reported as 2. AQVAMLGQILELPWKEETFLVLQS [L4A] gave a protein stability index of 2.02. With AQVYMLGQILELPWKEETFLVLQS [L4Y] the protein stability index was 2.82. Work on AQVLMLGSILELPWKEETFLVLQS [Q8S] yielded a protein stability index of 2.42. AQVLMLGGILELPWKEETFLVLQS [Q8G] showed a protein stability index of 4.12. Variant AQVLMLGAILELPWKEETFLVLQS [Q8A] has a protein stability index of 2.48. AQVLMLGYILELPWKEETFLVLQS [Q8Y] showed a protein stability index of 3.2. Work on AQVLALGQILELPWKEETFLVLQS [M5A] yielded a protein stability index of 2.24. With AQVLSLGQILELPWKEETFLVLQS [M5S] the protein stability index was 1.68. AQVLPLGQILELPWKEETFLVLQS [M5P] showed a protein stability index of 1.79. For AQVLQLGQILELPWKEETFLVLQS [M5Q], the protein stability index was 1.76. Work on AQVLKLGQILELPWKEETFLVLQS [M5K] yielded a protein stability index of 1.8. AQVLRLGQILELPWKEETFLVLQS [M5R] showed a protein stability index of 1.78. With AQVLMLGQILELPWKEETFLVLQG [S24G] the protein stability index was 2.41. In the case of AQVLMLGQILELPWKEETFLVLQA [S24A], the protein stability index is reported as 1.88. AQVLMLGQILELPWKEETFLVLQR [S24R] gave a protein stability index of 2.69. AQVLMLGQILELPWKEETFLVLQI [S24I] gave a protein stability index of 5.17. For AQVLMLGQILELPWKEETFLVLQK [S24K], the protein stability index was 2.21. For AQVLMLGQILELPWKEETFLVLQF [S24F], the protein stability index was 2.67. AQVLMLGQILELPWKEETFLVLQH [S24H] showed a protein stability index of 2.58. For AQVLMLGQILELAWKEETFLVLQS [P13A], the protein stability index was 5.32. For AQVLMLGQILELFWKEETFLVLQS [P13F], the protein stability index was 3.35. Variant AQVLMLGQILELYWKEETFLVLQS [P13Y] has a protein stability index of 2.88. Work on AQVLMLGQILELCWKEETFLVLQS [P13C] yielded a protein stability index of 4.64. With AQVLMLGQILELHWKEETFLVLQS [P13H] the protein stability index was 2.19. AQVLMLGQILGLPWKEETFLVLQS [E11G] gave a protein stability index of 2.17. With AQVLMLGQILTLPWKEETFLVLQS [E11T] the protein stability index was 2.47. Variant AQVLMLGQILDLPWKEETFLVLQS [E11D] has a protein stability index of 3.64. Variant AQVLMLGQILALPWKEETFLVLQS [E11A] has a protein stability index of 4.02. With AQVLMLGQILKLPWKEETFLVLQS [E11K] the protein stability index was 2.65. In the case of AQVLMLGQILFLPWKEETFLVLQS [E11F], the protein stability index is reported as 3.3. Variant AQVLMLEQILELPWKEETFLVLQS [G7E] has a protein stability index of 3.09. In the case of AQVLMLDQILELPWKEETFLVLQS [G7D], the protein stability index is reported as 2.12. AQKLMLGQILELPWKEETFLVLQS [V3K] gave a protein stability index of 1.32. In the case of AQFLMLGQILELPWKEETFLVLQS [V3F], the protein stability index is reported as 3.46. In the case of AQDLMLGQILELPWKEETFLVLQS [V3D], the protein stability index is reported as 1.81. With AQTLMLGQILELPWKEETFLVLQS [V3T] the protein stability index was 2.01. Variant AQVLMLGQIAELPWKEETFLVLQS [L10A] has a protein stability index of 1.81. Variant AQVLMLGQIKELPWKEETFLVLQS [L10K] has a protein stability index of 2.04. AQVLMLGQIFELPWKEETFLVLQS [L10F] showed a protein stability index of 3.56. AQVLMLGQITELPWKEETFLVLQS [L10T] showed a protein stability index of 2.28. With AQVLMLGQIHELPWKEETFLVLQS [L10H] the protein stability index was 3.55. AQVLMLGQISELPWKEETFLVLQS [L10S] showed a protein stability index of 3. Work on AQVLMLGQILEAPWKEETFLVLQS [L12A] yielded a protein stability index of 3.6. Variant AQVLMLGQILESPWKEETFLVLQS [L12S] has a protein stability index of 2.69. With AQVLMLGQILEWPWKEETFLVLQS [L12W] the protein stability index was 2.1. Work on AQVLMLGQILEMPWKEETFLVLQS [L12M] yielded a protein stability index of 3.18. Work on AQVLMLGQILEFPWKEETFLVLQS [L12F] yielded a protein stability index of 2.48. With AQVLMLGQILELPWKEHTFLVLQS [E17H] the protein stability index was 3.21. AQVLMLGQILELPWKEGTFLVLQS [E17G] showed a protein stability index of 4.35. With AQVLMLGQILELPWKEKTFLVLQS [E17K] the protein stability index was 3.12. AQVLMLGQILELPWKELTFLVLQS [E17L] gave a protein stability index of 2.23. With AQVLMLGQILELPWKEFTFLVLQS [E17F] the protein stability index was 1.89. Work on AQVLMLGQILELPCKEETFLVLQS [W14C] yielded a protein stability index of 2.55. For AQVLMLGQILELPRKEETFLVLQS [W14R], the protein stability index was 4.06. AQVLMLGQILELPWTEETFLVLQS [K15T] showed a protein stability index of 3.16. AQVLMLGQILELPWKTETFLVLQS [E16T] showed a protein stability index of 3.35. AQVLMLGQILELPWKVETFLVLQS [E16V] gave a protein stability index of 3.46. With AQVLMLGQILELPWKHETFLVLQS [E16H] the protein stability index was 3.11. AQVLMLGQILELPWKDETFLVLQS [E16D] showed a protein stability index of 1.67. Work on AQVLMLGQILELPWKLETFLVLQS [E16L] yielded a protein stability index of 3.01. In the case of AQVLMKGQILELPWKEETFLVLQS [L6K], the protein stability index is reported as 3.18. In the case of AQVLMCGQILELPWKEETFLVLQS [L6C], the protein stability index is reported as 3.67. In the case of AQVLMWGQILELPWKEETFLVLQS [L6W], the protein stability index is reported as 2.46. AQVLMLGQILELPWKEENFLVLQS [T18N] gave a protein stability index of 4.29. Variant AQVLMLGQILELPWKEEGFLVLQS [T18G] has a protein stability index of 3.68. AQVLMLGQILELPWKEEMFLVLQS [T18M] gave a protein stability index of 2.92. AQVLMLGQILELPWKEETFLNLQS [V21N] showed a protein stability index of 2.3. AQVLMLGQILELPWKEETFLILQS [V21I] gave a protein stability index of 2.06. With AQVLMLGQILELPWKEETFLFLQS [V21F] the protein stability index was 2.56. Work on AQVLMLGQILELPWKEETFLVVQS [L22V] yielded a protein stability index of 1.7. AQVLMLGQILELPWKEETFLVDQS [L22D] gave a protein stability index of 1.49.
